The text below walks through data of US20130156781A1 (GOVT OF THE UNITED STATES OF AMERICA H H N I H OFFICE OF …, published 2013).

The target of one experiment is T1, DR5 (UniProt O14763 56-182, limits assumed).
T1 construct: also called TRAIL-R2
Put plainly: ELISA. Background: An ELISA detects its analyte on a solid surface through an enzyme-linked reagent.

The target in experiment [1] is T2, Recombinant human rTRAIL receptor 1 (DR4), extracellular part, amino acids 25-239 (human, UniProt O00220 25-239).
T2 construct: also called rDR4; recombinant DR4
T2 sequence: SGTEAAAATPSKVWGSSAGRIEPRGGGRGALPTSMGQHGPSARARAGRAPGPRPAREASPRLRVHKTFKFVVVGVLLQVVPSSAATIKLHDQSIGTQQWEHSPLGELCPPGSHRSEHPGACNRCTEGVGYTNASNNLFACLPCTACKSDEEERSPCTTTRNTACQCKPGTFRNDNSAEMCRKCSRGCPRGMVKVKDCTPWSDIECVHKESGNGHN
Kind of experiment: ELISA, DR4 coated at 50 ng/well, IgG1 detected with anti-human Fc-HRP. On the procedure: To testing binding of recombinant antibodies to DR4 in vitro, DR4 protein was coated onto half-area ELISA plate at 50 ng/well. After blocking with MPBS, different dilutions of antibodies were incubated with coated wells. For detection of binding antibodies, secondary antibody goat anti-Flag tag-HRP and goat anti-human Fc-HRP (both used at 1:1000) were used to detect Fab or IgG. The ELISA signal was developed with substrate ABTS, and read under wavelength 405 nm. […] The mixture was then added to wells for ELISA.

B1: m922 IgG1 (antibody, V domains shown)
VH: QVQLQQSGPGLVKPSQTLSLTCAISGDSVSSNSAAWNWIRQSPSRGLEWLGRTYYRSKWYNDYAVSVKSRITINPDTSKNQFSLQLNSVTPEDTAVYYCARETVAVDAFDIWGQGTMVTVSS
VL: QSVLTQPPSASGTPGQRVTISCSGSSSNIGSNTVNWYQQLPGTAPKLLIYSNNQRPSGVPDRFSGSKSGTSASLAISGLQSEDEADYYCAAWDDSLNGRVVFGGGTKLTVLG
notes: also called IgG m922; DR4 m922 IgG
The EC50 is the concentration needed to bring the measured effect to its halfway point. In the case of B1, the binding result with DR5 is recorded as “no binding (tested: 1000 nM)”. Further, in experiment [1], the 50% effective concentration (EC50) is approximately 10 nM.

B2: m921 IgG1 (antibody, V domains shown)
VH: QVQLQQSGPGLVKPSQTLSLTCAISGDSVSSNSAAWNWIRQSPSRGLEWLGRTYYRSKWYNDYAVSVKGRITINPDTSKNQFSLQLNSVTPEDTAVYYCARDLGVAAADSYYYYGMDVWGQGTTVTVSS
VL: QPVLTQPPSASATPGQRVTISCSGSSSNIGSNTLDWFQQLPGTAPKLLIFDTNRRPSGVPDRFSGSKSGTSASLAISGLQAEDEAVYFCATWDNSLNGAVFGGGTKLSVPR
notes: also called IgG m921; DR4 IgG m921
Regarding B2, the binding result with DR5 was “no binding (tested: 1000 nM)”. In addition, the half-maximal effective concentration (EC50) in experiment [1] was approximately 10 nM.
